Results from patent US20260209362A1 (VIB VZW, published 2026).

T1: biotinylated recombinant human IL-12Rβ2 (human, UniProt Q99665 24-622, random biotinylated)
T1 construct: Recombinant protein produced in-house; also called hIL-12RB2; human IL-12RB2
T1 sequence: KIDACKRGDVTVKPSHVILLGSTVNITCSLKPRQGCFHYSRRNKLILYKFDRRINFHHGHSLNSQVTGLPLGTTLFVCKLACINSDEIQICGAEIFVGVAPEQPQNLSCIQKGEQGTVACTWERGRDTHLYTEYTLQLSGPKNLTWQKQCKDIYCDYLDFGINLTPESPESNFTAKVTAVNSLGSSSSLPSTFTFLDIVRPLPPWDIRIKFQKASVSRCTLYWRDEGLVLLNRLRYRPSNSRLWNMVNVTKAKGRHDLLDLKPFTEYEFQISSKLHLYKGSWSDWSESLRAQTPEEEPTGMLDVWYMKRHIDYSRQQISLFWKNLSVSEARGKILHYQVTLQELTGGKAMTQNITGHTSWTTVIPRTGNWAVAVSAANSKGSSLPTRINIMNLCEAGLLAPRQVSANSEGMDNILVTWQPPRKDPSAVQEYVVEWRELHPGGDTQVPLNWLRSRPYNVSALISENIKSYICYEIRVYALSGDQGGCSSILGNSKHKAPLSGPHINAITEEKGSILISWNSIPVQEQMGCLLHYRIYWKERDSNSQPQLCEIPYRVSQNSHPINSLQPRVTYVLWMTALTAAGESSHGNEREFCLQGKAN

T2: biotinylated recombinant mouse IL-12Rβ2 (mouse, UniProt P97378 24-637, random biotinylated)
T2 construct: Recombinant protein produced in-house; also called mIL-12RB2; mouse IL-12RB2
T2 sequence: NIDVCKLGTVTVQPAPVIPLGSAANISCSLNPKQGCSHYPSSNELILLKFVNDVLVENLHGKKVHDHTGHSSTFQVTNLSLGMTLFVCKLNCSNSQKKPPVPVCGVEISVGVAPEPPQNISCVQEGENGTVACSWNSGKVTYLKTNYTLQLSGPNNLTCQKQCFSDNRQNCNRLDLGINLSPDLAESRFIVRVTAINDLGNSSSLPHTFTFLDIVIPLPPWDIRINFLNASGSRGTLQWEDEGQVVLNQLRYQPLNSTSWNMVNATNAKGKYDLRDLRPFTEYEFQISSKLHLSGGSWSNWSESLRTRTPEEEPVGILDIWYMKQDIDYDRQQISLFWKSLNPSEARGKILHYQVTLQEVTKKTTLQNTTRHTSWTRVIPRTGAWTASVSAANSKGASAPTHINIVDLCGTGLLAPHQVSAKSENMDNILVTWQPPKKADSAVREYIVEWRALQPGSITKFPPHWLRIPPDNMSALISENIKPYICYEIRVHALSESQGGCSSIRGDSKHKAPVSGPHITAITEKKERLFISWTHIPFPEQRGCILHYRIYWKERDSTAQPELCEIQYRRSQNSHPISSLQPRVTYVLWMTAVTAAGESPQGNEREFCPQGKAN


What was measured:
[1] = target: T1, biotinylated recombinant human IL-12Rβ2; test: BLI, P.E., off-rate ranking
[2] = target: T1, biotinylated recombinant human IL-12Rβ2; test: ELISA, P.E., biotinylated antigen
[3] = target: T2, biotinylated recombinant mouse IL-12Rβ2; test: ELISA, P.E., biotinylated antigen

| Response [1] | koff [1] | ELISA hIL-12RB2/control [2] | ELISA mIL-12RB2/control [3] | Binder |
| --- | --- | --- | --- | --- |
| 0.259 | 0.00405 s⁻¹ | 3.13 | 0.908 | anti-IL-12Rβ2 VHH clone 3CRHS99 (clone ID 20427) (VHH, not shown: small tags and cut ends, periplasmic extract) VHH: QVQLQESGGGLVQPGGSLRLSCKASGFTFSTYAMSWVRQAPGKGLEWVSAINSGGLSTDYADSVEGRFTISRDDAKNMLFLQMNSLKAEDTARYYCAKYEDCSDYMCHRDRAGYWGQGTQVTVSS |
| 0.297 | 0.00355 s⁻¹ | 10.2 | 1.03 | anti-IL-12Rβ2 VHH clone 3CRHS106 (clone ID 20429) (VHH, not shown: small tags and cut ends, periplasmic extract) VHH: QVQLQESGGGLVQPGGSLRLSCKASGFTFSTYAMSWVRQAPGKGLEWVSAVNSGGLSTDYADSVEGRFTISRDDAKNMLFLQMNSLKPEDTARYYCAKYEDCSDYMCHRDRAGYWGQGTQVTVSS |
| 0.352 | 0.00324 s⁻¹ | 4.98 | 1.07 | anti-IL-12Rβ2 VHH clone 3CAHS142 (clone ID 20401) (VHH, not shown: small tags and cut ends, periplasmic extract) VHH: QVQLQESGGGLVQAGESLTLSCIASGVIKDYAMGWFRQAPGKEREFVAAISWSGVSIYYADSVKGRFTISRDNAKNTVYLQMNSLEPEDTAVYYCAGTEGAYTVAGGSTFGYDMDYWGKGTQVTVSS |
| 0.523 | 0.00205 s⁻¹ | 5.16 | 1.04 | anti-IL-12Rβ2 VHH clone 3CRH25 (clone ID 20378) (VHH, not shown: small tags and cut ends, periplasmic extract) VHH: QVQLQESGGGLVQAGDSLRLSCTASGHTFSRYTTIGWFRQAPGKDREFVAAIRWSGDITDYADAVKGRFTISRDNVKNTVYLQMNSLNPEDTAVYYCARGYSEYGVLSRNRGLYAYWGQGTQVTVSS |
| 0.551 | 0.00426 s⁻¹ | 6.37 | 1.02 | anti-IL-12Rβ2 VHH clone 3CRHS77 (clone ID 20425) (VHH, not shown: small tags and cut ends, periplasmic extract) VHH: QVQLQESGGGLVQAGGSLRLSCTASGHTFSSYTTIGWFRQAPGKEREFVAAIGWSGDITDYADAVKGRFTISRHNVENTVYLQMNSLNPEDTAVYYCARGYSEYGVLSRNRGLYAYWGQGTQVTVSS |
| 0.726 | 0.00428 s⁻¹ | 4.94 | 1.41 | anti-IL-12Rβ2 VHH clone 3CRH64 (clone ID 20386) (VHH, not shown: small tags and cut ends, periplasmic extract) VHH: QVQLQESGGGLVQAGGSLRLSCTASGHTFSRYTTIGWFRQAPGKDREFVAAIRWSGDITDYADAVKGRFTISRDNVKNTVYLQTNSLNPEDTAVYYCARGYSEYGVLSRNRGLYAYWGQGTQVTVSS |
| 0.607 | 0.00419 s⁻¹ | 4.31 | 0.842 | anti-IL-12Rβ2 VHH clone 3CAH32 (clone ID 20357) (VHH, not shown: small tags and cut ends, periplasmic extract) VHH: QVQLQESGGGLVQPGGSLRLSCAASGSILRINLMGWYRQVPGKQRELVAEMSTGGSTTYVDSVKGRFTISRDNAKNTVYLQMNSLKPEDTAVYYCNAKAWQLGRLENDDWGQGTQVTVSS |
| 0.323 | 0.00267 s⁻¹ | 3.54 | 1.02 | anti-IL-12Rβ2 VHH clone 3CAHS102 (clone ID 20399) (VHH, not shown: small tags and cut ends, periplasmic extract) VHH: QVQLQESGGGLVQPGGSLRLSCAASGSILRINLMGWYRQVPGKQRELVAEMSTGGSTTYVDSVEGRFTISRDNAKNTVYLQMNSLKPEDTAVYYCNAKAWQLGRLENDDWGQGTQVTVSS |
| 0.268 | 0.00434 s⁻¹ | 3.71 | 1.04 | anti-IL-12Rβ2 VHH clone 3CAHS79 (clone ID 20398) (VHH, not shown: small tags and cut ends, periplasmic extract) VHH: QVQLQESGGGLVQPGGSLRLTCVASGFPFSTHAMSWVRQPPGKGREWISAINSGGDSTDYADSVMGRFTISRDNAKNTVYLQMNSLKSEDTAVYYCAKYEDCSDYDCSSRASWGQGTQVTVSS |
| 0.195 | 0.00431 s⁻¹ | 3.27 | 0.961 | anti-IL-12Rβ2 VHH clone 3CAHS171 (clone ID 20407) (VHH, not shown: small tags and cut ends, periplasmic extract) VHH: QVQLQESGGGLVQPGGSLRLTCVASGFPFSTHAMSWVRQPPGKGREWISAINSGGDSTDYADSVMGRFTISRDNAKNTVYLQMNSLKSEDTAAYYCAKYEDCSDYDCSSRASWGQGTQVTVSS |
| 0.205 | 0.00275 s⁻¹ | 23.7 | 0.999 | anti-IL-12Rβ2 VHH clone 3CRHS142 (clone ID 20434) (VHH, not shown: small tags and cut ends, periplasmic extract) VHH: QVQLQESGGGLVQAGGSLRLSCVSSQTLVGIEAMGWYRQAPGKQRELVALITLNGGTFYADSVKGRFTISRDVAEHMLYLEMNSLNPEDTAVYFCVAGVESDNEEPTYWGQGTQVTVSS |
| 0.282 | 0.00297 s⁻¹ | 24.5 | 1.03 | anti-IL-12Rβ2 VHH clone 3CRHS156 (clone ID 20437) (VHH, not shown: small tags and cut ends, periplasmic extract) VHH: QVQLQESGGGLVQSGGSLRLSCVSSQTLVGIEAMGWYRQAPGKQRELVALITLNGGTFYADSVKGRFAISRDVAEHMLYLEMNSLNPEDTAVYFCVAGVESDNEEPTYWGQGTQVTVSS |
| 0.279 | 0.00311 s⁻¹ | 12.5 | 1.07 | anti-IL-12Rβ2 VHH clone 2CRHS4 (clone ID 20411) (VHH, not shown: small tags and cut ends, periplasmic extract) VHH: QVQLQESGGGLVQPGGSLRLSCVSSQTLVGIEAMGWYRQAPGKQRELVALITLNGGTFYADSVKGRFTISRDVAGHMLYLEMNSLNPEDTAVYFCVAGVESDNEEPTYWGQGTQVTVSS |
| 0.416 | 0.00443 s⁻¹ | 18.3 | 1.19 | anti-IL-12Rβ2 VHH clone 3CRHS67 (clone ID 20424) (VHH, not shown: small tags and cut ends, periplasmic extract) VHH: QVQLQESGGGLVQAGGSLTLSCVSSQTLVGIEAMGWYRQAPGKQRELVALITLNGGTFYADSVKGRFTISRDVAEHMLYLEMNSLNPEDTAVYFCVAGVESDNEEPTYWGQGTQVTVSS |
| 0.149 | 0.00247 s⁻¹ | 23.2 | 1.06 | anti-IL-12Rβ2 VHH clone 3CRHS166 (clone ID 20439) (VHH, not shown: small tags and cut ends, periplasmic extract) VHH: QVQLQESGGGLVQSGGSLRLSCVSSQTLVGIEAMGWYRQAPGKQRELVALITLNGGTFYADSVKGRFTISRDVAEHMLYLEMNSLNPEDTAVYFCVAGVESDNEEPTYWGQGTQVTVSS |
| 0.493 | 0.00496 s⁻¹ | 3.8 | 1.64 | anti-IL-12Rβ2 VHH clone 2CRH41 (clone ID 20365) (VHH, not shown: small tags and cut ends, periplasmic extract) VHH: QVQLQESGGGLVQPGGSLRLSCTASGFAFSSYWMYWVRQSPEKGFEWVSVVDTDGGITYYADSVKGRFTISRDNAKNTLYLQMNSLKPQDTALYYCARDRTTLEYTRTYYRTGQGTQVTVSS |
| 0.339 | 0.00302 s⁻¹ | 3.58 | 0.927 | anti-IL-12Rβ2 VHH clone 3CRHS163 (clone ID 20438) (VHH, not shown: small tags and cut ends, periplasmic extract) VHH: QVQLQESGGGLVQPGGSLRLSCTASGFAFSTYWMYWIRQSPEKGFEWVSVVNTGGDITYYADSVKGRFTISRDNAKNTLYLQMNSLKPEDTALYYCARDRTTMSYTRTYYRGGQGTQVTVSS |
| 0.487 | 0.00453 s⁻¹ | 15.9 | 1.89 | anti-IL-12Rβ2 VHH clone 3CRH59 (clone ID 20385) (VHH, not shown: small tags and cut ends, periplasmic extract) VHH: QVQLQESGGGLVQPGGSLRLSCTASGFAFSSYWMYWVRQTPGKGFEWVSVVNPGGEITYYGDSMEDRFTISRDNAKNTLYLQMNSLKPEDTGLYYCARDRTTIDYTRTYYRGGQGTQVTVSS |
| 0.482 | 0.00494 s⁻¹ | 3.84 | 1.05 | anti-IL-12Rβ2 VHH clone 2CAH27 (clone ID 20354) (VHH, not shown: small tags and cut ends, periplasmic extract) VHH: QVQLQESGGGSVQSGGSLRLSCVASGRTFSSYAMGWFRQGPGKEREFVAAISWSGVSIYYADSVKGRFTISRDNAKNTVYLQMNSLEPEDTAVYYCAGTEGAYTVAGGSTFGYDMDYWGKGTQVTVSS |
| 0.759 | 0.00443 s⁻¹ | 9.56 | 1.11 | anti-IL-12Rβ2 VHH clone 3CAH48 (clone ID 20360) (VHH, not shown: small tags and cut ends, periplasmic extract) VHH: QVQLQESGGGLVQAGGSLRLSCAASGRTFSSYAMGWFRQGPGKEREFVAAISWSGVSTYYADSVKGRFTISRDNAKNTVYLQMNSLRPEDTAVYYCAATEGAYTVAGGSTFGYDMDYWGKGTQVTVSS |
